± gives the half width of the 95% confidence interval.
Tests used:
[1] = folding stability dG unfold from chymotrypsin proteolysis; higher = more stable
How it was run: (§1)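 Designed mini-proteins (under 80 residues, no cysteine) in a PA-tagged cDNA display construct were digested with trypsin and chymotrypsin. Each protease was used at 11 concentrations (threefold dilutions) plus a no-protease condition, followed by sequencing. K50 was inferred by Bayesian fitting of sequencing counts, and unfolding free energy was derived against a sequence-predicted unfolded-state K50 and a shared folded-state K50, per protease or combined. Only designs with AlphaFold2 dimer inter-PAE above 15 were kept.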

[2] = folding stability dG unfold from trypsin proteolysis; higher = more stable
How it was run: as §1

[3] = folding stability dG unfold (combined trypsin and chymotrypsin); higher = more stable
How it was run: as §1

Sequence | folding stability dG unfold [1] [kJ/mol] | folding stability dG unfold [2] [kJ/mol] | folding stability dG unfold [3] [kJ/mol]
SAGYVEPYEDGMVKIDSTFFLNDWVFKVDWWIMPNGNIMISIEPIEPIPPPPPVPIDADDPEQKEEAQQSAG [r5_715_TrROS] | 11.2 ± 0.289 | 7.09 ± 0.753 | 10.1 ± 0.962
SAIKGMPLEELAKHIENEMRKMHPNVKIKVEIVDVPPDYLVIEVEITVRHPNPGGQQVEFPMTIVIDLDSAG [r14_187_TrROS] | 6.28 ± 0.711 | 7.57 ± 0.879 | 7.57 ± 0.879
SAISPTERVEATDYKSPNGAVGSTTTFPDPEGSTVSIVREGSTWRLVTVNPDGSVSEREVSPEEAAALLASA [r9_1144_JUSTAS] | 7.15 ± 0.272 | 7.89 ± 0.167 | 7.78 ± 0.28
SAKASELLKKLPFEAEIEEGEEFVKIKLKNPFLKNPNVTFEFEIPTKKGKPIKVKVTLTKNGAEKIEPSSAG [r14_401_TrMRF] | 9.14 ± 0.326 | 10.7 ± 0.586 | 9.41 ± 1.42
SAKDIEIEMERTNGYYQMTIKLPGKGYEISVWMPGDQYEISVQPPKNPDEVETIPFTVPEIKDALIDALSAG [r14_716_TrROS] | 5.26 ± 0.669 | 2.17 ± 0.502 | 4.95 ± 1.26
SAKEEEKKKKKEKKKPKPKTVEITVYINGKKIKKIKFNKKTKKITITLENGKKITIPPGMSLEEILKKLSAG [r14_59_TrROS_Hall] | 14.1 ± 0.418 | 9.06 ± 0.669 | 12.1 ± 1
SAKIKVEIVEIDEKTGTIKIKAEIELPDGTKIELEATIKIEPVEVEKKEVTDKNGKKITVTKIKIKLPEKSA [r9_610_TrROS_Hall] | 10.5 ± 1 | 8.59 ± 2.09 | 10.8 ± 2.97
SAKITKIEINEDGTLTITIEVELPEGMEADELVIFVEVDGKIYEATIKKDGTVEIKLKNIKDLKIYIFKKSA [r9_722_TrROS_Hall] | 21.1 ± 0.502 | 16.2 ± 1.17 | 20.7 ± 0.669
SAKKKKPLPKIKKIKITITLKDGTKIEMEITKVEVLEDGTVKIKMKMKVIDKKTKKKYEFEIEIIIKLKSAG [r14_591_TrROS_Hall] | 13.7 ± 0.711 | 12.4 ± 1.13 | 13.7 ± 0.879
SAKKKVVELEIEIEVPPEDLTEEELKEKVLEALRKLFPDLKIKKIEIEVRVERKEDGSLKVTVKIKIEPSAG [r14_145_TrROS_Hall] | 8.4 ± 0.586 | 12.7 ± 0.544 | 11.1 ± 1.17
SAKKKVVVEIEIPKEDMSKEEVKEALREAAKELGLELPEEEIEKLVEEARKKGLSIEEVLRKLKEEGLLSAG [r14_364_TrROS_Hall] | 6.17 ± 0.226 | 2.9 ± 0.234 | 4.7 ± 0.502
SAKKLDIKVDGIQRPENNVMILIRIDPGLPPEKDVTITIKGKNGHKQEIPYENDHIYIMVPAQDITIKISAG [r14_350_TrROS] | 11.2 ± 0.188 | 7.52 ± 0.322 | 9.43 ± 1.42
SAKKVKPIAKLTITDENGNTYEITVTVKEVDGKLVVEAEVYNKDGELVARVTAVFDNGKLVAVSIELLPSAG [r14_828_TrROS_Hall] | 12.7 ± 0.301 | 8.82 ± 0.544 | 11.7 ± 0.711
SAKMKLPEGAKPIAEKDGITIVEVPNKVIIRVRLPDGKEVTLTFPKSDLEEIEALIRELKDAGIEEIEFSAG [r14_12_TrROS_Hall] | 3.19 ± 0.502 | 3.67 ± 0.1 | 3.41 ± 0.293
SAKMTAEELAKKLAEELAKKLGVKVKVEVEVKVEEKDGKLVIEVKIKVYNENGELIEEIKIEIVLPKEESAG [r14_708_TrROS_Hall] | 16.1 ± 1.09 | 12.2 ± 1.46 | 14.7 ± 1.17
SAKPKVIAEITIYNKETGKVVRITLTDEALEEAKKKGLKEVKLTVEIEVVNPDGSKKTFKMEITLKVEDSAG [r14_100_TrROS_Hall] | 17.1 ± 0.711 | 11.6 ± 1.09 | 16.6 ± 1.09
SAKPPVIVIRIEKKEDGTYRVTIEVDGKEIEIEVPEGTSLEEILKKLAEELGVEVEVVEVKDGYLVIKPSAG [r14_404_TrROS_Hall] | 12 ± 0.385 | 11.8 ± 0.837 | 11.9 ± 1.09
SAKTIPINIWGPLGDMDRMAEEIARMIARKLGLPANLKKIKIKFTEIEPWPDPDGKPRWVRMSIEIKVKSAG [r14_736_TrROS] | 15.1 ± 0.397 | 14.9 ± 0.251 | 14.4 ± 0.795
SAKVKISIEFDKKTNKVTIKVKYKGDKEKEKEITLSLEELQKKLGKPLSLEEIIKLLKEKGIDEVEIYPSAG [r14_809_TrROS_Hall] | 17.8 ± 0.389 | 14.4 ± 0.586 | 17 ± 0.628
SALDAKEIAEEFMKKFPPNFRDITVDVENTGNKRKIKIMFRMPNRYWTQEFDLDDGKIEIEPINPGQPLSAG [r14_737_TrROS] | 1.54 ± 0.628 | 3.6 ± 0.381 | 2.81 ± 0.276
SALEANIKKAEELAKPEEKVPEFPVKVGDLYIKSVRFFPSTKKVVLFLPNGEKIEADPNVTLEEILKAISAG [r14_59_TrMRF] | 1.06 ± 0.544 | 3.18 ± 0.314 | 2.14 ± 0.628
SALGEEEVLRALKAAAAPLPKVEPVLRKVTVLVPETGEPFEVEVLAYRLENGEIFPVPAEATEALAEALASA [r9_1056_TrMRF] | -0.42 ± 1.72 | -2.3 ± 1.51 | -1.15 ± 0.795
SALLENGGIFISINLEWDPEYNWIRIKRFTIYWNGKVIATQPQWIPVPPPPPPPPPEREYNPNDPDNNKSAG [r14_571_TrROS] | 21.2 ± 0.356 | 13.3 ± 0.795 | 19.1 ± 0.669
SALPALLEAAEAGESGTFIPIVADPEAAAVLRAVLERLGFTLVSEEPVPAGARPVFVGVYYFDPVSGRNRSA [r9_498_TrMRF] | 9.94 ± 0.711 | 4.61 ± 0.197 | 7.68 ± 0.381
SALPPEVVRKLALDALRALYPDEPFVPVSMEVDPETGEVTVLVARPGPDDSLRLVRRTFRVLDDGRVLGSAG [r14_183_TrMRF] | 12.9 ± 0.297 | 11.7 ± 0.28 | 12.5 ± 0.259
SALPPGAPPKPERLVLTLTVSEEEVKKGDLEKVRRLVEELVEALREAGFEVKEVEVVEEDGKLTVRIVLDSA [r9_75_TrROS_Hall] | 11.2 ± 0.711 | 12.7 ± 1.09 | 12.2 ± 1.51

— the supplement of paper PMC12764529
